Source: US20240218065A1 (SHENGHE CHINA BIOPHARMACEUTICAL, published 2024)

T1: Human-NKP30-His (Kactus, cat: NKP-HM430) (human, UniProt O14931 19-138, limits assumed)
T1 construct: also called NKP30 protein; NKP30-his protein; not shown: His tag
T1 sequence (looked up): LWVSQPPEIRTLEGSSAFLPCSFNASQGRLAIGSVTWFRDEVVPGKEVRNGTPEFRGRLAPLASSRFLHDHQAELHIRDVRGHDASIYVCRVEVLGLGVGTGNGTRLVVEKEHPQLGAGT

T2: huCD24-humanFC (Acro, cat: CD4-H5254) (human, UniProt P25063 27-59)
T2 construct: also called CD24 protein; not shown: human Fc
T2 chain (looked up): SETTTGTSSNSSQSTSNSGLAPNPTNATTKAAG


What was measured:
[1] = target: T1, Human-NKP30-His (Kactus, cat: NKP-HM430); test: ELISA: Human-NKP30-His coated at 0.2 µg/mL, antibody titrated 3-fold from 10 µg/mL (7 points), HRP goat anti-human IgG-Fc, OD450-OD570
Experimental: Human-NKP30-His (Kactus, cat: NKP-HM430) was diluted to 0.2 μg/mL with PBS buffer at pH 7.4, added into the 96-well ELISA plate at 100 μL per well, coated overnight at 4° C., and blocked with 1% BSA blocking solution for 1 hour. The plate was washed 3 times with PBST, and the constructed expressing antibody was diluted to 10 μg/mL with 0.5% BSA sample diluent as the starting concentration, and then diluted by 3-fold gradient (7 gradients in total). A negative control (blank well and IgG1 isotype control) and a positive control were set, and the positive control was the NKP30 humanized antibody (sequence shown in SEQ ID No. 28), and incubated at 37° C. for 1 h at 100 μL per well. The plate was washed 3 times with PBST, and then HRP-labelled goat anti-human IgG-Fc was diluted with the sample diluent at 1:20000. 100 μL was added into each well, and incubated at room temperature for 1 hour. The plate was washed 4 times with PBST, and 100 μL of TMB substrate was added into each well, and incubated at room temperature without light for 10 minutes. 100 μL of 1 M HCl solution was added into each well to terminate the color development reaction. The absorbance value of each well in the 96-well plate was determined by selecting the wavelength of 450 nm and the reference wavelength of 570 nm on a multifunctional enzyme marker, and the absorbance value (OD)=OD₄₅₀ₙₘ−OD₅₇₀ₙₘ. The logarithm of the concentration of the constructed antibody was taken as the abscissa, and the measured absorbance value of each well was taken as the ordinate, and the Sigmoidaldose-response (Variable Slope) method (GraphPad Prism software, GraphPad Software, San Diego, California) was selected for nonlinear regression to obtain the binding curve of the target antibody to NKP30.

[2] = target: T2, huCD24-humanFC (Acro, cat: CD4-H5254); test: Bridging ELISA: huCD24-humanFC coated at 0.3 µg/mL, antibody titrated 3-fold from 20 µg/mL, then NKP30-his at 0.3 µg/mL, HRP anti-His antibody, OD450-OD570
Experimental: The huCD24-humanFC (Acro, cat: CD4-H5254) was diluted to 0.3 μg/mL with PBS buffer at pH 7.4, added into the 96-well ELISA plate at 100 μL per well, coated overnight at 4° C., and blocked with 1% BSA blocking solution for 1 hour. The plate was washed 3 times with PBST, and the purified antibody was diluted to 20 μg/mL with 0.5% BSA sample diluent as the starting concentration, and then diluted by 3-fold gradient (11 gradients in total). An irrelevant antibody was set as the negative control and incubated at 37° C. for 1 h at 50 μL per well. The plate was washed 3 times with PBST, and the NKP30-his protein was diluted to 0.3 μg/mL. 100 μL was added into each well, and incubated at room temperature for 1 h. The plate was washed 3 times with PBST, and then HRP-labelled his antibody was diluted with the sample diluent at 1:5000. 100 μL was added into each well, and incubated at room temperature for 1 h. The plate was washed 4 times with PBST, 100 μL of TMB substrate was added into each well, and incubated at room temperature without light for 10 min. 100 μL of 1 M HCl solution was added into each well to terminate the color development reaction. The absorbance value of each well in the 96-well plate was determined by selecting the wavelength of 450 nm and the reference wavelength of 570 nm on a multifunctional enzyme marker, and the absorbance value (OD)=OD₄₅₀ₙₘ−OD₅₇₀ₙₘ. The logarithm of antibody concentration was taken as the abscissa, and the measured absorbance value of each well was taken as the ordinate, and the Sigmoidaldose-response (Variable Slope) method (GraphPad Prism software, GraphPad Software, San Diego, California) was selected for nonlinear regression to obtain the binding curve of the target antibody to CD24 and NKP30 proteins at both ends.

Binder | binding result [1] | EC50 (read off the curve) [2]
DN15-A (bispecific antibody, human IgG1, kappa, Trifunctional antibody against CD24 and NKP30 with IL-15 and IL-15Rα sushi between CH1 and CH2; also called constructed antibody DN15-A; multifunctional antibody) light: EVQLVESGGGLVQPGGSLRLSCAASGITFSRSVMGWFRQAPGKLRELVAGITSDDNTDYADSVKGRFTISRDNSKNTLYLQMNSLRAEDTAVYYCNILPDSRLGWGQGTLVTVSSGGGGSGGGGSGGGGSDIQMTQSPSTLSASVGDRVTITCSASSSVSSMHWYQQKPGKAPKLLIYSTSNLASGVPSRFSGSGSGTEYTLTISSLQPDDFATYYCHHWTSYMYTFGGGTKVEIKRTVAAPSVFIFPPSDEQLKSGTASVVCLLNNFYPREAKVQWKVDNALQSGNSQESVTEQDSKDSTYSLSSTLTLSKADYEKHKVYACEVTHQGLSSPVTKSFNRGEC heavy 1: not shown heavy 2: QVQLVQSGSELKKPGASVKVSCKASGYIFTDYAIHWVRQAPGQGLEWMGFINTATGEPTYADDFKGRFVFSLDTSVSTAYLQISSLKAEDTAVYFCTSGVHWGQGTLVTVSSASTKGPSVFPLAPSSKSTSGGTAALGCLVKDYFPEPVTVSWNSGALTSGVHTFPAVLQSSGLYSLSSVVTVPSSSLGTQTYICNVNHKPSNTKVDKKVEPKSCDKTHTCPPCPGGGGSGGGGSPALLLLLLLRPPATRGITCPPPMSVEHADIWVKSYSLYSRERYICNSGFKRKAGTSSLTECVLNKATNVAHWTTPSLKCIRDPALVHQRPAPPSTVTTAGVTPQPESLSPSGKEGGGGSGGGGSAPELLGGPSVFLFPPKPKDTLMISRTPEVTCVVVDVSHEDPEVKFNWYVDGVEVHNAKTKPREEQYNSTYRVVSVLTVLHQDWLNGKEYKCKVSNKALPAPIEKTISKAKGQPREPQVYTLPPSRDELTKNQVSLTCLVKGFYPSDIAVEWESNGQPENNYKTTPPVLDSDGSFFLASKLTVDKSRWQQGNVFSCSVMHEALHNHYTQKSLSLSPGK | binds | ~0.08 µg/mL
DN15-B (bispecific antibody, human IgG1, kappa, Trifunctional antibody against CD24 and NKP30 with IL-15 and IL-15Rα sushi between CH1 and CH2; also called constructed antibody DN15-B; multifunctional antibody) light: DIQMTQSPSTLSASVGDRVTITCSASSSVSSMHWYQQKPGKAPKLLIYSTSNLASGVPSRFSGSGSGTEYTLTISSLQPDDFATYYCHHWTSYMYTFGGGTKVEIKRTVAAPSVFIFPPSDEQLKSGTASVVCLLNNFYPREAKVQWKVDNALQSGNSQESVTEQDSKDSTYSLSSTLTLSKADYEKHKVYACEVTHQGLSSPVTKSFNRGEC heavy 1: not shown heavy 2: EVQLVESGGGLVQPGGSLRLSCAASGITFSRSVMGWFRQAPGKLRELVAGITSDDNTDYADSVKGRFTISRDNSKNTLYLQMNSLRAEDTAVYYCNILPDSRLGWGQGTLVTVSSGGGGSGGGGSGGGGSQVQLVQSGSELKKPGASVKVSCKASGYIFTDYAIHWVRQAPGQGLEWMGFINTATGEPTYADDFKGRFVFSLDTSVSTAYLQISSLKAEDTAVYFCTSGVHWGQGTLVTVSSASTKGPSVFPLAPSSKSTSGGTAALGCLVKDYFPEPVTVSWNSGALTSGVHTFPAVLQSSGLYSLSSVVTVPSSSLGTQTYICNVNHKPSNTKVDKKVEPKSCDKTHTCPPCPGGGGSGGGGSPALLLLLLLRPPATRGITCPPPMSVEHADIWVKSYSLYSRERYICNSGFKRKAGTSSLTECVLNKATNVAHWTTPSLKCIRDPALVHQRPAPPSTVTTAGVTPQPESLSPSGKEGGGGSGGGGSAPELLGGPSVFLFPPKPKDTLMISRTPEVTCVVVDVSHEDPEVKFNWYVDGVEVHNAKTKPREEQYNSTYRVVSVLTVLHQDWLNGKEYKCKVSNKALPAPIEKTISKAKGQPREPQVYTLPPSRDELTKNQVSLTCLVKGFYPSDIAVEWESNGQPENNYKTTPPVLDSDGSFFLASKLTVDKSRWQQGNVFSCSVMHEALHNHYTQKSLSLSPGK | binds | ~0.1 µg/mL
DN15-D (bispecific antibody, human IgG1, kappa, Trifunctional antibody against CD24 and NKP30 with IL-15 and IL-15Rα sushi between CH1 and CH2; also called constructed antibody DN15-D; multifunctional antibody) light: DIQMTQSPSTLSASVGDRVTITCSASSSVSSMHWYQQKPGKAPKLLIYSTSNLASGVPSRFSGSGSGTEYTLTISSLQPDDFATYYCHHWTSYMYTFGGGTKVEIKRTVAAPSVFIFPPSDEQLKSGTASVVCLLNNFYPREAKVQWKVDNALQSGNSQESVTEQDSKDSTYSLSSTLTLSKADYEKHKVYACEVTHQGLSSPVTKSFNRGEC heavy 1: not shown heavy 2: QVQLVQSGSELKKPGASVKVSCKASGYIFTDYAIHWVRQAPGQGLEWMGFINTATGEPTYADDFKGRFVFSLDTSVSTAYLQISSLKAEDTAVYFCTSGVHWGQGTLVTVSSASTKGPSVFPLAPSSKSTSGGTAALGCLVKDYFPEPVTVSWNSGALTSGVHTFPAVLQSSGLYSLSSVVTVPSSSLGTQTYICNVNHKPSNTKVDKKVEPKSCDKTHTCPPCPGGGGSGGGGSPALLLLLLLRPPATRGITCPPPMSVEHADIWVKSYSLYSRERYICNSGFKRKAGTSSLTECVLNKATNVAHWTTPSLKCIRDPALVHQRPAPPSTVTTAGVTPQPESLSPSGKEGGGGSGGGGSAPELLGGPSVFLFPPKPKDTLMISRTPEVTCVVVDVSHEDPEVKFNWYVDGVEVHNAKTKPREEQYNSTYRVVSVLTVLHQDWLNGKEYKCKVSNKALPAPIEKTISKAKGQPREPQVYTLPPSRDELTKNQVSLTCLVKGFYPSDIAVEWESNGQPENNYKTTPPVLDSDGSFFLASKLTVDKSRWQQGNVFSCSVMHEALHNHYTQKSLSLSPGKGGGGSGGGGSGGGGSGGGGSEVQLVESGGGLVQPGGSLRLSCAASGITFSRSVMGWFRQAPGKLRELVAGITSDDNTDYADSVKGRFTISRDNSKNTLYLQMNSLRAEDTAVYYCNILPDSRLGWGQGTLVTVSS | binds | ~0.2 µg/mL
